Experimental data reported in the supplement of paper PMC9170038.

What follows are sequences tested on MS2 coat protein (assay: apparent KD of MS2 coat protein; higher = weaker reporter binding). Details: Eterna round: R107; input ligand: theophylline 20 uM.
Protocol: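 RNA-MaP round R107: designed RNA switches with theophylline, tryptophan, arginine or FMN aptamers are transcribed on-chip within common flanks. They are titrated with SNAP-549-labelled MS2 coat protein in RNA-MaP buffer (100 mM Tris pH 7.5, 80 mM KCl, 4 mM MgCl2), without ligand or with the indicated ligand. Median apparent KD per design.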

Sequence	apparent KD of MS2 coat protein
ACGUUCGCGGUAUCCAACCGGUUGUACAAACGAGGACCGGUACGGCCGCCACUCGUGAUUGUACAUGAGGAUCACCCAUGUGGCA [theeternabot_exclusion_MS2_Trp_A_28]	34.1 nM
CAAAAUAUAACGGCCGCCACUUACUCAUGAGGUAACAACAUGAGGAUCACCCAUGUUUGAGGAUCAAGGACCGGGUUAUAUUUUG [AstrosSSTry#21]	34.9 nM
CUUAUAUAUACGGCCGCCACUUACUCAUGAGGUAACAACAUGAGGAUCACCCAUGUUUGAGGAUCAAGGACCGGGUAUAUAUAAG [AstrosSSTry#18]	35.9 nM
UUUAUAUAGACGGCCGCCACUGGAAUUAAUACAUGAGGAUCACCCAUGUAUAGAGAAUAAUAAUACAGGACCGGGUCUUCAUGAU [SS Tryp B Tesla 1.1]	34.2 nM
CCAUCUACAUCGGCCGCCACUGAACCAAGGAGACAUGAGGAUCACCCAUGUAUGGGAAACCAUCAUAGGACCGGGAUGAUCUACC [doubleHook]	336 nM
GGGUACAUCGCGGCCGCCACUUGUGUAAAUACAUGAGGAUCACCCAUGUCGAUGGAGACAUCGGGAAGGACCGGGUGAUGUACCG	802 nM
CUACAUUUGUAGAAACCGGUCACCAUUACUCGAGGACCGGUACGGCCGCCACUCGUGUCAUGUGAUACAUGAGGAUCACCCAUGU [Tryptophan A 10]	26.2 nM
AAAAUCCUACCUGAGGAUCACCCUGGUGAAGGAGCGCCCGAAAGGGCAGGUAGGUCGCACCUGAGGAUCACCCGGGUAACCUAAA [ArgEX 14 #DoubleMS2 #OpenEnded #AlternativeMS2]	139 nM
GCACGGGCGAUCGGCACUUUUACUAAUAUACGAGGACCGGUACGGCCGCCACUCGAGCUAAGACAUGAGGAUCACCCAUGUAACG [theeternabot_exclusion_MS2_Trp_A_41]	30 nM
ACGUAAUGCAGAAGGAGCGUCUGAUUUUAACAUGAGGAUCACCCAUGUAAUAUUUAUGGUAGACAGGUAGGUCGCUGAAGUACGA [JR_ExcArginiB_Sub002]	16.8 nM
ACAUGAGGAUCACCCAUGUCACGGCACGAUACCAGCUGAUGCGGUGGCCCUUGGCAGCGUGACGUUUGGUCCCGCGGAUGACACG [qsmullin]	280 nM
GCUGCUUAGGGAAGGAGCGCUGCGGAAUUGUGGAGGACAUGAGGAUCACCCAUGUUCCUGCGGCAGGUAGGUCGCUUUGGGCAGC [#17 Exclusion - Arginine B]	48.1 nM
GCUGUACCAUGAAGGAGCGCUUUAAUUAUAGAAGAUACAUGAGGAUCACCCAUGUUCCUCGAGCAGGUAGGUCGCAUGGUACAGC [SSAB #18]	33 nM
AUGUCGUUGAAUAUAGCGGCUUGGAGUGAUACCAGAAUGAUCUAAUUCCCUUGGCAGCAUUACAUGAGGAUCACCCAUGUUCCAG [SSTheo A #22]	57.4 nM

Same assay, conditions: Eterna round: R107; input ligand: theophylline 2 mM

Sequence	apparent KD of MS2 coat protein
AAAGCUACGUAAAAUAAAACUACAUGUGAAGGAGCGCGCGAAAGCGCAGGUAGGUCGCACAUGAGGAUCACCCAUGUCGUAGCAA [MAT - Exclusion Arginine A - Mod of Eli - D5]	78.2 nM
GGACAUGCAGGAAGGAGCGACACGCAGAAACUGCAAAAUCCUCCACACGAGGAUCACCCGUGUCAGGUAGGUCGCCUGCAUGUCG [ArgXB 15 #Zipper #MS2Left #StaticStem #Blueprint]	127 nM
CUCGUCAACUCGGCCGCCACUGACGUGUGGUCAGGCCUGUAGAAACACAUGAGGAUCACCCAUGUCAGGACCGGGAGCUUUAUUA [theeternabot_exclusion_MS2_Trp_B_26]	61.6 nM
ACAUGAGGAUCACCCAUGUAAGAUGCAGAAGGAGCGGGAAAUAACCCAGGUAGGUCGCUGCGGUUUGGAUUAUUGUGUUCGUGAA [#08 Exclusion - Arginine A]	13.8 nM
AAAAGAGGUGGAAGGAGCGGGAGACAUGAGGAUCACCCAUGUGAUGUGACGAAAGGGUCAGCCCAGGUAGGUCGCCAUGUCGAAA [yuyymullin]	134 nM
UUAUAUACUACGGCCGCCACUGAACAUGAGGAUCACCCAUGUAAUGUUCAGAUUUUUUUUUUUUACAGGACCGGGUAGAAUUAAA [Tryptophan B 2]	206 nM
CCAUGCAGGUCGGCCGCCACUACACACAUGAGGAUCACCCAUGUAGUUACUGGGUGAAGUGGCAGUAGGACCGGGACCUGCACAC [Brourdmod20]	601 nM
GGCGCGAGCCAACAUGAGGAUCACCCAUGUCGAGGACCGGUACGGCCGCCACUCGAACGAGUGAAGCGCGCGCGCGCGCGCGCGC [Uaa]	68.8 nM
ACAUGAGGAUCACCCAUGUGAUGGCACGAUACCAGCUGAUCCCGUGGCCCUUGGCAGCGUCCGGUGUGGUCCGGCGGGUGGGACG [qqwmullin]	25.9 nM
UACAUGAGGAUCACCCAUGUAUAACCGGUACGAGGACCGGUACGGCCGCCACUCGAAACAUGAGGAUCACCCAUGUGCUACUAUU [Same State Trypophan A GF 22]	35.1 nM
ACGUUCGCGGUAUCCAACCGGUUGUACAAACGAGGACCGGUACGGCCGCCACUCGUGAUUGUACAUGAGGAUCACCCAUGUGGCA [theeternabot_exclusion_MS2_Trp_A_28]	28.1 nM
CAAAAUAUAACGGCCGCCACUUACUCAUGAGGUAACAACAUGAGGAUCACCCAUGUUUGAGGAUCAAGGACCGGGUUAUAUUUUG [AstrosSSTry#21]	33 nM
CUUAUAUAUACGGCCGCCACUUACUCAUGAGGUAACAACAUGAGGAUCACCCAUGUUUGAGGAUCAAGGACCGGGUAUAUAUAAG [AstrosSSTry#18]	33.8 nM
UUUAUAUAGACGGCCGCCACUGGAAUUAAUACAUGAGGAUCACCCAUGUAUAGAGAAUAAUAAUACAGGACCGGGUCUUCAUGAU [SS Tryp B Tesla 1.1]	33.7 nM
CCAUCUACAUCGGCCGCCACUGAACCAAGGAGACAUGAGGAUCACCCAUGUAUGGGAAACCAUCAUAGGACCGGGAUGAUCUACC [doubleHook]	415 nM
GGGUACAUCGCGGCCGCCACUUGUGUAAAUACAUGAGGAUCACCCAUGUCGAUGGAGACAUCGGGAAGGACCGGGUGAUGUACCG	1200 nM
CUACAUUUGUAGAAACCGGUCACCAUUACUCGAGGACCGGUACGGCCGCCACUCGUGUCAUGUGAUACAUGAGGAUCACCCAUGU [Tryptophan A 10]	27.1 nM
AAAAUCCUACCUGAGGAUCACCCUGGUGAAGGAGCGCCCGAAAGGGCAGGUAGGUCGCACCUGAGGAUCACCCGGGUAACCUAAA [ArgEX 14 #DoubleMS2 #OpenEnded #AlternativeMS2]	200 nM
GCACGGGCGAUCGGCACUUUUACUAAUAUACGAGGACCGGUACGGCCGCCACUCGAGCUAAGACAUGAGGAUCACCCAUGUAACG [theeternabot_exclusion_MS2_Trp_A_41]	30.4 nM
ACGUAAUGCAGAAGGAGCGUCUGAUUUUAACAUGAGGAUCACCCAUGUAAUAUUUAUGGUAGACAGGUAGGUCGCUGAAGUACGA [JR_ExcArginiB_Sub002]	15.2 nM
GCUGCUUAGGGAAGGAGCGCUGCGGAAUUGUGGAGGACAUGAGGAUCACCCAUGUUCCUGCGGCAGGUAGGUCGCUUUGGGCAGC [#17 Exclusion - Arginine B]	60.5 nM
AGACUUCGCAUAGGAAAACUAUGUGAAGUCCGAGGACCGGUACGGCCGCCACUCGUCCUCACAUGAGGAUCACCCAUGUAAAUAA [#OpenEnded 2 #CuTurnoff #Tail]	24.5 nM
GCUGUACCAUGAAGGAGCGCUUUAAUUAUAGAAGAUACAUGAGGAUCACCCAUGUUCCUCGAGCAGGUAGGUCGCAUGGUACAGC [SSAB #18]	27 nM

Same assay, conditions: Eterna round: R107; input ligand: tryptophan 2.4 mM

Sequence	apparent KD of MS2 coat protein
AAAGCUACGUAAAAUAAAACUACAUGUGAAGGAGCGCGCGAAAGCGCAGGUAGGUCGCACAUGAGGAUCACCCAUGUCGUAGCAA [MAT - Exclusion Arginine A - Mod of Eli - D5]	52.2 nM
UGUUUGGUGCGCGAGUGUUGGAUAAUUGAUACCAGUGUAGAUGUGCGCCCUUGGCAGCGAAUCCUAACAUGAGGAUCACCCAUGU [5.Y]	41.8 nM
GGACAUGCAGGAAGGAGCGACACGCAGAAACUGCAAAAUCCUCCACACGAGGAUCACCCGUGUCAGGUAGGUCGCCUGCAUGUCG [ArgXB 15 #Zipper #MS2Left #StaticStem #Blueprint]	110 nM
UGGCAGCACCUCAUGUGCUGCCAAGGUGAUACCAGCAUCGAAAGAUGCCCUUGGCAGCACCAACAUGAGGAUCACCCAUGUAAUA [(MT)''-(M)'-(T')-(Theo)-(Ms2)_Design1/22_7]	217 nM
UCGUGAGUUUCGGAUACCAGUGUUGUCGAUACAUGAGGAUCACCCAUGUUAGAGGAUGUACACCCUUGGCAGCCGGCUGUGGCGG [lplmullin]	17.3 nM
ACAUGAGGAUCACCCAUGUAAGAUGCAGAAGGAGCGGGAAAUAACCCAGGUAGGUCGCUGCGGUUUGGAUUAUUGUGUUCGUGAA [#08 Exclusion - Arginine A]	12.5 nM
AGUCUAUGGAGAGAUACCAGUGAGAGCCAUAGACAUGAGGAUCACCCAUGUGACAUGGAUCACCCUUGGCAGCUCAACGAGCUCU [#20 Same State - Theophylline B]	87.1 nM
AAAAGAGGUGGAAGGAGCGGGAGACAUGAGGAUCACCCAUGUGAUGUGACGAAAGGGUCAGCCCAGGUAGGUCGCCAUGUCGAAA [yuyymullin]	27.3 nM
CCAUGCAGGUCGGCCGCCACUACACACAUGAGGAUCACCCAUGUAGUUACUGGGUGAAGUGGCAGUAGGACCGGGACCUGCACAC [Brourdmod20]	335 nM
GGCGCGAGCCAACAUGAGGAUCACCCAUGUCGAGGACCGGUACGGCCGCCACUCGAACGAGUGAAGCGCGCGCGCGCGCGCGCGC [Uaa]	167 nM
ACAUGAGGAUCACCCAUGUGAUGGCACGAUACCAGCUGAUCCCGUGGCCCUUGGCAGCGUCCGGUGUGGUCCGGCGGGUGGGACG [qqwmullin]	21.2 nM
GGGUACAUCGCGGCCGCCACUUGUGUAAAUACAUGAGGAUCACCCAUGUCGAUGGAGACAUCGGGAAGGACCGGGUGAUGUACCG	650 nM
AAAAUCCUACCUGAGGAUCACCCUGGUGAAGGAGCGCCCGAAAGGGCAGGUAGGUCGCACCUGAGGAUCACCCGGGUAACCUAAA [ArgEX 14 #DoubleMS2 #OpenEnded #AlternativeMS2]	151 nM
ACGUAAUGCAGAAGGAGCGUCUGAUUUUAACAUGAGGAUCACCCAUGUAAUAUUUAUGGUAGACAGGUAGGUCGCUGAAGUACGA [JR_ExcArginiB_Sub002]	14.8 nM
ACAUGAGGAUCACCCAUGUCACGGCACGAUACCAGCUGAUGCGGUGGCCCUUGGCAGCGUGACGUUUGGUCCCGCGGAUGACACG [qsmullin]	240 nM
GCUGCUUAGGGAAGGAGCGCUGCGGAAUUGUGGAGGACAUGAGGAUCACCCAUGUUCCUGCGGCAGGUAGGUCGCUUUGGGCAGC [#17 Exclusion - Arginine B]	45.3 nM
GCUGUACCAUGAAGGAGCGCUUUAAUUAUAGAAGAUACAUGAGGAUCACCCAUGUUCCUCGAGCAGGUAGGUCGCAUGGUACAGC [SSAB #18]	22.9 nM
AUGUCGUUGAAUAUAGCGGCUUGGAGUGAUACCAGAAUGAUCUAAUUCCCUUGGCAGCAUUACAUGAGGAUCACCCAUGUUCCAG [SSTheo A #22]	55.5 nM
